Results as given in US20120135923A1, “Use of Melanocortins to Treat Dyslipidemia” (IPSEN PHARMA, S.A.S., priority 2009, published 2012).
Bridge positions count the residues as written; N and C are the ends. Square brackets hold non-standard residues; d marks the D form. Ends that are not written are not given here. Bip = N[C@@H](Cc1ccc(-c2ccccc2)cc1)C(=O)O; 2Nal = N[C@@H](Cc1ccc2ccccc2c1)C(=O)O; d2Nal = N[C@H](Cc1ccc2ccccc2c1)C(=O)O; Bta = N[C@@H](Cc1csc2ccccc12)C(=O)O; hArg = N=C(N)NCCCC[C@H](N)C(=O)O; Nle = CCCC[C@H](N)C(=O)O; Aib = CC(C)(N)C(=O)O; Ava = NCCCCC(=O)O; βAla = NCCC(=O)O

B1: Nle-c(Cys-His-D-Phe-Arg-Trp-Apn-Cys)-NH2 (peptide)
peptide: [Nle]CH[dF]RW[Ava]C-NH2
modifications: disulfide 2-8; N-terminus assumed
SMILES: CCCC[C@H](N)C(=O)N[C@H]1CSSC[C@@H](C(N)=O)NC(=O)CCCCNC(=O)[C@H](Cc2c[nH]c3ccccc23)NC(=O)[C@H](CCCNC(=N)N)NC(=O)[C@@H](Cc2ccccc2)NC(=O)[C@H](Cc2c[nH]cn2)NC1=O
B2: Ac-c(Cys-Glu-His-D-2-Nal-Arg-Trp-Ala-Cys)-Pro-Pro-Lys-Asp-NH2 (peptide)
peptide: Ac-CEH[d2Nal]RWACPPKD-NH2
modifications: disulfide 1-8
SMILES: CC(=O)N[C@H]1CSSC[C@@H](C(=O)N2CCC[C@H]2C(=O)N2CCC[C@H]2C(=O)N[C@@H](CCCCN)C(=O)N[C@@H](CC(=O)O)C(N)=O)NC(=O)[C@H](C)NC(=O)[C@H](Cc2c[nH]c3ccccc23)NC(=O)[C@H](CCCNC(=N)N)NC(=O)[C@@H](Cc2ccc3ccccc3c2)NC(=O)[C@H](Cc2c[nH]cn2)NC(=O)[C@H](CCC(=O)O)NC1=O
B3: Ac-c(Cys-Glu-His-D-2-Nal-Arg-2-Nal-Aib-Cys)-Pro-Pro-Lys-Asp-NH2 (peptide)
peptide: Ac-CEH[d2Nal]R[2Nal][Aib]CPPKD-NH2
modifications: disulfide 1-8
SMILES: CC(=O)N[C@H]1CSSC[C@@H](C(=O)N2CCC[C@H]2C(=O)N2CCC[C@H]2C(=O)N[C@@H](CCCCN)C(=O)N[C@@H](CC(=O)O)C(N)=O)NC(=O)C(C)(C)NC(=O)[C@H](Cc2ccc3ccccc3c2)NC(=O)[C@H](CCCNC(=N)N)NC(=O)[C@@H](Cc2ccc3ccccc3c2)NC(=O)[C@H](Cc2c[nH]cn2)NC(=O)[C@H](CCC(=O)O)NC1=O
B4: Ac-c(Cys-Glu-His-D-2-Nal-Arg-1-Nal-Ala-Cys)-Pro-Pro-Lys-Asp-β-Ala-Tyr-Gly-Arg-Lys-Lys-Arg-Arg-Gln-Arg-Arg-Arg-NH2 (peptide)
peptide: CEHXRXACPPKDXYGRKKRRQRRR
modifications: N-terminal acetyl; X4=D-2-Nal; X6=1-Nal; X13=β-Ala; Cys1-Cys8 disulfide; C-terminal amide
B5: Ac-c(Cys-Glu-His-D-2-Nal-Arg-Bal-Ala-Cys)-Pro-Pro-Lys-Asp-β-Ala-Tyr-Aib-Arg-Lys-Lys-Arg-Arg-Gln-Arg-Arg-Arg-NH2 (peptide)
peptide: Ac-CEH[d2Nal]R[Bta]ACPPKD[βAla]Y[Aib]RKKRRQRRR-NH2
modifications: disulfide 1-8
SMILES: CC(=O)N[C@H]1CSSC[C@@H](C(=O)N2CCC[C@H]2C(=O)N2CCC[C@H]2C(=O)N[C@@H](CCCCN)C(=O)N[C@@H](CC(=O)O)C(=O)NCCC(=O)N[C@@H](Cc2ccc(O)cc2)C(=O)NC(C)(C)C(=O)N[C@@H](CCCNC(=N)N)C(=O)N[C@@H](CCCCN)C(=O)N[C@@H](CCCCN)C(=O)N[C@@H](CCCNC(=N)N)C(=O)N[C@@H](CCCNC(=N)N)C(=O)N[C@@H](CCC(N)=O)C(=O)N[C@@H](CCCNC(=N)N)C(=O)N[C@@H](CCCNC(=N)N)C(=O)N[C@@H](CCCNC(=N)N)C(N)=O)NC(=O)[C@H](C)NC(=O)[C@H](Cc2csc3ccccc23)NC(=O)[C@H](CCCNC(=N)N)NC(=O)[C@@H](Cc2ccc3ccccc3c2)NC(=O)[C@H](Cc2c[nH]cn2)NC(=O)[C@H](CCC(=O)O)NC1=O
B6: Ac-Nle-c(Cys-His-D-Phe-Arg-Trp-Apn-Cys)-NH2 (peptide)
peptide: Ac-[Nle]CH[dF]RW[Ava]C-NH2
modifications: disulfide 2-8
SMILES: CCCC[C@H](NC(C)=O)C(=O)N[C@H]1CSSC[C@@H](C(N)=O)NC(=O)CCCCNC(=O)[C@H](Cc2c[nH]c3ccccc23)NC(=O)[C@H](CCCNC(=N)N)NC(=O)[C@@H](Cc2ccccc2)NC(=O)[C@H](Cc2c[nH]cn2)NC1=O
B7: Ac-Nle-c(Asp-D-Ala-His-D-Phe-Arg-Bal-Lys)-NH2 (peptide)
peptide: Ac-[Nle]D[dA]H[dF]R[Bta]K-NH2
modifications: lactam 2-8
SMILES: CCCC[C@H](NC(C)=O)C(=O)N[C@H]1CC(=O)NCCCC[C@@H](C(N)=O)NC(=O)[C@H](Cc2csc3ccccc23)NC(=O)[C@H](CCCNC(=N)N)NC(=O)[C@@H](Cc2ccccc2)NC(=O)[C@H](Cc2c[nH]cn2)NC(=O)[C@@H](C)NC1=O
B8: Ac-c(Cys-Glu-His-D-2-Nal-Arg-Bal-Ala-Cys)-Pro-Pro-Lys-Asp-β-Ala-Tyr-Gly-Arg-Lys-Lys-Arg-Arg-Gln-Arg-Arg-Arg-NH2 (peptide)
peptide: CEHXRXACPPKDXYGRKKRRQRRR
modifications: N-terminal acetyl; X4=D-2-Nal; X6=Bal; X13=β-Ala; Cys1-Cys8 disulfide; C-terminal amide
B9: Ac-Nle-c(Cys-D-Ala-His-D-Phe-Arg-Trp-Cys)-(Doc)2-Tyr-Gly-Arg-Lys-Lys-Arg-Arg-Gln-Arg-Arg-Arg-NH2 (peptide)
peptide: XCAHFRWCXXYGRKKRRQRRR
modifications: N-terminal acetyl; X1=Nle; D-Ala3; D-Phe5; X9=Doc; X10=Doc; Cys2-Cys8 disulfide; C-terminal amide

The binders below were run against hMC4-R (human) (UniProt P32245) (assay: cell-based or functional assay).
Chain of hMC4-R (human) (P32245 whole entry): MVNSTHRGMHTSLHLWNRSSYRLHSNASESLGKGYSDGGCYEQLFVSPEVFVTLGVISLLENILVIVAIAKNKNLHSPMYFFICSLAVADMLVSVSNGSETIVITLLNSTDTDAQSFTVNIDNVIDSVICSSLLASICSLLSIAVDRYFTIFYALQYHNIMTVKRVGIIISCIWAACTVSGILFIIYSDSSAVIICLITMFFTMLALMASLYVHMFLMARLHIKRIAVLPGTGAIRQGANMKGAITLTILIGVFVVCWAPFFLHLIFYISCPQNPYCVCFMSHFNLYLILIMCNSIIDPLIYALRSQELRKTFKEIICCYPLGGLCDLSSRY

Binder | cAMP EC50 | cAMP Kb
B1 | 0.018 nM | –
B2 | – | 0.687
B3 | – | 4.52
B4 | – | 5.87
B5 | – | 46.5
B6 | 0.0492 nM | –
B7 | 1.65 nM | –
[dF]CH[d(Et)Tyr][hArg][Bip][βAla][dC]T-NH2 (disulfide 2-8) [D-Phe-c(Cys-His-D-(Et)Tyr-hArg-Bip-β-Ala-D-Cys)-Thr-NH2] | 86.9 nM | –
B8 | – | 41.1

Each binder was assayed against hMC1-R (human) (UniProt Q01726) (assay: cell-based or functional assay).
Chain of hMC1-R (human) (Q01726 whole entry): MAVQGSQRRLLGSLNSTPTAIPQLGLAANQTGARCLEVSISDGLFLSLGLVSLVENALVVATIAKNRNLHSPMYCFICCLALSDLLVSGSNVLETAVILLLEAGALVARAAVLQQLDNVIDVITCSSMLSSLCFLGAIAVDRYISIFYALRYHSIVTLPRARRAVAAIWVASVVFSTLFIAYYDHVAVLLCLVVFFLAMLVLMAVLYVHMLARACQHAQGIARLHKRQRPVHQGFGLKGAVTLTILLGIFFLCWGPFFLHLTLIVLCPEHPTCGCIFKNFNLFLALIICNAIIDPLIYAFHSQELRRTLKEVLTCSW

Binder | cAMP EC50
B1 | 0.31 nM
B2 | 66.1
B3 | 770
B4 | 43.3
B5 | 67.1
B6 | 0.76 nM
B9 | 4.7
B7 | 0.931 nM
[dF]CH[d(Et)Tyr][hArg][Bip][βAla][dC]T-NH2 (disulfide 2-8) [D-Phe-c(Cys-His-D-(Et)Tyr-hArg-Bip-β-Ala-D-Cys)-Thr-NH2] | 0.685 nM
B8 | 37.9

Each binder was assayed against hMC5-R (human) (UniProt P33032) (assay: cell-based or functional assay).
Chain of hMC5-R (human) (P33032 whole entry): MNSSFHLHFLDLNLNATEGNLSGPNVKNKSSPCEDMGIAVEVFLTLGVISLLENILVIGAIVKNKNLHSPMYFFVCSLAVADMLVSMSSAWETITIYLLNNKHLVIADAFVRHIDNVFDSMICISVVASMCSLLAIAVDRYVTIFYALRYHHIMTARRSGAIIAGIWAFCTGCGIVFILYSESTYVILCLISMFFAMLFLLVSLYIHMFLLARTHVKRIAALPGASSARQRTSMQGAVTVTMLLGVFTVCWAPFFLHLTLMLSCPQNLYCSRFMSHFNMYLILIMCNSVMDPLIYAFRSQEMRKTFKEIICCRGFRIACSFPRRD

Binder | cAMP EC50
B1 | 3.1 nM
B2 | 6.84 nM
B3 | 869 nM
B4 | 1290 nM
B5 | 582 nM
B6 | 1.73 nM
B9 | 147 nM
B7 | > 10000 nM
[dF]CH[d(Et)Tyr][hArg][Bip][βAla][dC]T-NH2 (disulfide 2-8) [D-Phe-c(Cys-His-D-(Et)Tyr-hArg-Bip-β-Ala-D-Cys)-Thr-NH2] | 31.8 nM
B8 | 1800 nM

What follows are binders tested against hMC3-R (human) (UniProt P41968) (assay: cell-based or functional assay).
Chain of hMC3-R (human) (P41968 whole entry): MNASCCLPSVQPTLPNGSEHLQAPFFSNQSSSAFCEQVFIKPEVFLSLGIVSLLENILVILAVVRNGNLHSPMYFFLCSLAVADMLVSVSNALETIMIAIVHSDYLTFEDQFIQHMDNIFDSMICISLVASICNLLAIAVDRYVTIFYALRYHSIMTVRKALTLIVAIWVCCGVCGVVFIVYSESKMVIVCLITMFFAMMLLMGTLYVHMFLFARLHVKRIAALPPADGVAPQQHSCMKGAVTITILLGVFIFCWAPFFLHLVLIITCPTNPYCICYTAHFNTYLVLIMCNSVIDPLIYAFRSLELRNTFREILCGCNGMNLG

Binder | cAMP EC50 | cAMP Kb
B1 | 0.27 nM | –
B2 | – | 33.4
B3 | – | 221
B4 | – | 215
B5 | – | 439
B6 | 0.199 nM | –
B7 | 3.22 nM | –
[dF]CH[d(Et)Tyr][hArg][Bip][βAla][dC]T-NH2 (disulfide 2-8) [D-Phe-c(Cys-His-D-(Et)Tyr-hArg-Bip-β-Ala-D-Cys)-Thr-NH2] | 81.8 nM | –
B8 | – | 112

The binders below were run against human melanocortin receptor subtype 5 (hMC5-R) (human), P33032 (assay: [125I]-NDP-α-MSH competition, membranes).
Chain of human melanocortin receptor subtype 5 (hMC5-R) (human), P33032 (P33032 whole entry): as the sequence (P33032 whole entry) above

Binder | Ki
Ac-YRC[dA]H[dF]RWC-NH2 (disulfide 3-9) [Ac-Tyr-Arg-c(Cys-D-Ala-His-D-Phe-Arg-Trp-Cys)-NH2] | 714 nM

What follows are binders tested against human melanocortin receptor subtype 4 (hMC4-R) (human), P32245 (assay: [125I]-NDP-α-MSH competition, membranes).
Chain of human melanocortin receptor subtype 4 (hMC4-R) (human), P32245 (P32245 whole entry): as the sequence (P32245 whole entry) above

Binder | Ki
IC[dA]H[dF]RWC-NH2 (disulfide 2-8; also: hydantoin ring from C(O) with Ile1-Cys2) [c[Hydantoin(C(O)-(Ile-Cys))-D-Ala-His-D-Phe-Arg-Trp-Cys]-NH2] | 41.6 nM

The binders below were run against human melanocortin receptor subtype 1 (hMC1-R) (human), Q01726 (assay: [125I]-NDP-α-MSH competition, membranes).
Chain of human melanocortin receptor subtype 1 (hMC1-R) (human), Q01726 (Q01726 whole entry): as the sequence (Q01726 whole entry) above

Binder | Ki
IC[dA]H[dF]RWC-NH2 (disulfide 2-8; also: hydantoin ring from C(O) with Ile1-Cys2) [c[Hydantoin(C(O)-(Ile-Cys))-D-Ala-His-D-Phe-Arg-Trp-Cys]-NH2] | 53.4 nM
